Measurements published in PMC10720262 (2023).

B1: CL-531325 (antibody, V domains shown)
VH: QVHLVESGGGVVQPGKSLRLSCAASGFTFSNFGMHWVRQAPGKGLEWVALIWYDGSHKFYADSVQGRFTISRDNSKNTLFLQMNSLRAEDTAIYYCAKVISYGSVNYYNNYKYTMDVWGQGTTVTVSS
VL: not shown
modifications: peptides N-terminally acetylated and C-terminally amidated
B2: CL-532061 (antibody, V domains shown)
VH: QVQLVESGGGVVQPGRSLRLSCVASRFTFSNYGMHWVRQTPGKGLEWVAIIWYDGSNKFYGDSVKGRFTISRDNSRNTLYLQMNNLRAEDTAVYYCARAYDDFVDHDKYGMDVWGQGTTVTVSS
VL: DIQMTQSPSTLSASVGDRVTISCRASQSISIWLAWYQQKSGKAPKLLIYKASRLESGVPSRFSGSGSGTEFTLTISSLQPDDFATYYCQQYNSYWTFGQGTKVEIK
modifications: peptides N-terminally acetylated and C-terminally amidated
B3: CL-510640 (antibody, V domains shown)
VH: QVQLVESGGGVVQPGRSLRLSCAASGFTFSNYGMHWVRQAPVKGLEWVAIIWYDGSNKFYADSVRGRFIISRDNSKNTLYLQMNSLRAEDTAVYFCARAREGQNSDYYGSETSYTFDSWGLGTLVTVSS
VL: DIQMTQSPSTLSASVGDRVTITCRASQSISSWLAWYQQKPGKAPKFLIYKASSLESGVPSRFSGSGSGTEFTLTISSLQPDDFATYYCQQYKSYWTFGQGTKVEIK
modifications: peptides N-terminally acetylated and C-terminally amidated
B4: Ky15.7 (antibody, V domains shown)
VH: QVQVVESGGGAVQPGRSLRLSCAASGFTFSNRGMHWVRQTPGKGLEWVAIIWYDGGNKFYADSVKGRFTISRDNSKNTLYLQMNSLRDEDTAVYYCVRAGDWKADKYTMDVWGQGTTVTVSS
VL: DIQMTQSPSTLSASVGDRVTITCRASQSISSWLAWYQQKPGKAPKVLIYQASSLESGVPSRFSGSGSGTEFTLTISSLQPDDFATYYCQQYNSYWTFGQGTKVEIK
modifications: peptides N-terminally acetylated and C-terminally amidated
B5: Ky15.3 (antibody, V domains shown)
VH: QVQLVESGGGVVQPGRSLRLSCVASGFTFSNAGMHWVRQTPGKGLEWVAIIWYDGSIKYYGESVKGRFTISRDNSKNTLYLEMSSLRAEDTAVYFCVRAYSGSLYDKYGMDVWGQGTTVIVSS
VL: DIQMTQSPSTLSASVGDRVTISCRASQTISTWLAWFQQKPGKAPKLLIYAASSLQSGVPSRFSGSGSGTDFTLTISNLQPDDFATYYCQQFNSYWTFGQGTKVEIK
modifications: peptides N-terminally acetylated and C-terminally amidated
B6: Ky15.11 (antibody, V domains shown)
VH: QVQLVESGGGVVQPGRSLRLSCEASGFTFSNFGMHWVRQTPVKGLEWVAIIWFDGSYKYYTDSVKGRFTISRDNSKNTLYLQMNSLRAEDTAVYYCARARKGQRSDYYGSETSYTFDNWGQGTLVTVSS
VL: DIQMTQSPSTLSASVGDRVTITCRASQSINGWLAWYQQKPGKAPKFLIYKASILESGIPSRFSGSGSGTEFTLTISSLQPDDFATYYCQQYSSYWTFGQGTKVEIK
modifications: peptides N-terminally acetylated and C-terminally amidated
B7: CL-512761 (antibody, V domains shown)
VH: QVQLVESGGGVVQPGTSLRLSCAASGFTFSNYGMHWVRQAPGKGLEWVSITWYDESNKFYADSVKGRFTISRDNSKNTLYLQMNSLRAEDTAVYYCARAYDTLTGYRAQKYGMDVWGQGTTVTVSS
VL: DIQMTQSPSTLSASVGDRVTITCRASQRISTWLAWYQQKPGKAPKLLINEASRLESGVPSRFSGSGSGTEFTLTISSLQPDDFATYYCQQYNSYWTFGQGTKVEIK
modifications: peptides N-terminally acetylated and C-terminally amidated
B8: CL-509293 (antibody, V domains shown)
VH: QVQLVASGGGVVQPGRSLRLTCAASGFTFSNYGMHWVRQSPGRGLEWVAIIWYDGSNKFYADSVKGRFTISRDNSKNTLYLQMNSLRAEDTAVYYCAKAEQRTNDNYYKYGMDVWGQGTTVTVST
VL: not shown
modifications: peptides N-terminally acetylated and C-terminally amidated
B9: CL-460506 (antibody, V domains shown)
VH: QVQLVESGGGVVQPGRSLRLSCAASGFTFSNYGMHWVRQAPGKGLEWMAIIWYDGSNKYYADSVKGRFTISRDNSMNTLYLQMNSLRPEDTALYYCARAFYYGSGTLDYWGQGTLVTVSS
VL: EIVLTQSPATLSVSPGERATLSCRASQSVSSHLAWYQQKFGQAPRLLIYGASNRATGIPARFSGSGSGTEFTLTISILQSEDFAVYYCQQYNNWFTFGPGTKIDIK
modifications: peptides N-terminally acetylated and C-terminally amidated
B10: CL-513808 (antibody, V domains shown)
VH: QVQLVESGGGVVQPGRSLRLSCAASGFTFSNYGMHWVRQAPGKGLEWVAIIWYDGSNKFYADSVKGRFTISRDNSKNTLYLQMNSLRAEDTAVYYCARDDRGHSYGPYFDFWGQGTLVTVSS
VL: EIVMTQSPATLSVSPGERATLSCRASQSVSSNLAWYQQKPGQAPRLLIYGASIRATGIPARFSGSGSGTEFTLTISILQSEDFAVYYCQQCNNWPWTFGQGTKVEIK
modifications: peptides N-terminally acetylated and C-terminally amidated
B11: CL-513691 (antibody, V domains shown)
VH: QVQLVESGGDVVQTGRSLRLSCAASGFTFSNYGMHWVRQAPDKGLEWVAIIWYDGSNKFYADSVKGRFTISRDNSKNTLYLHIHSLRAEDTAVYYCARDDRGDSAGPYFVYWGQGTLVTVSS
VL: EIVMTQSPATLSVSPGERATLSCRASQSVSDNLAWYQQRPGQAPRLLIYGASIRATGIPARFGGSGSGTEFTLTISILQSADFAVYYCQQHDSWPWTFGQGTKVEIK
modifications: peptides N-terminally acetylated and C-terminally amidated
B12: CL-445457 (antibody, V domains shown)
VH: QVQLVESGGAVVQPGTSLRLSCAASGFTFSNYGIHWVRQAPGKGLQWVALIWYNGNNKFYADSVQGRFTISRDNSKNILYLQINSLSAEDTAVYYCARAFYSDSGNYMDYWGQGALVTVSS
VL: DIQMTQSPSSVSASVGDRVTITCRARQDISSRLAWYQQKPGKAPKILIYGASSLQSGVPSRFSASGSGTDFTLTISSLQPEDVASYFCQQANSFPWTFGQGTKVEIK
modifications: peptides N-terminally acetylated and C-terminally amidated
B13: CL-437862 (antibody, V domains shown)
VH: QVQLVESGGGVVQPGRSLRLSCAASGFTFSNSGMHWVRQVPGKGLEWVAIIWYDGGNKYYADSVKGRFTISRDNSKNTLYLQMNSLRAEDTAVYYCARAYYDILTSYDKDCCYGMDVWGQGTTVTVSS
VL: not shown
modifications: peptides N-terminally acetylated and C-terminally amidated
B14: CL-511776 (antibody, V domains shown)
VH: QVQLVESGGGVVQPGRSLTLSCAASGFTFSNFGMHWVRQAPGKGLEWMAVIWYDGNNEFYADSVKGRFTISRDNSKNMLYLHMNSLRAEDTAIYYCAREGDYSASGSHWLFDPWGQGTQVTVSS
VL: DIQMTQSPSTLSASVGDSITITCRASQSINIWLAWYQQKPGKAPNLLIYKASSLESGVPSRFSGSGSGTEFTLTINSLQPDDFATYYCQQYNNYVTFGGGTKVEIK
modifications: peptides N-terminally acetylated and C-terminally amidated
B15: CL-515341 (antibody, V domains shown)
VH: QVYLVESGGGVVQPGKSLRLSCAASGFTFSNYGMHWVRQAPGKGLEWVAIIWHDGSNKFYSDSVRGRFTISRDNSQNTLYLQMNSLSAEDTALYFCAKDIGYSNTWDYFDYWGQGTLVTVSS
VL: EIVLTQSPATLSLSPGERATLSCRASQSVNSFLAWYQQKPGQAPRLLIYDASNRATDIPDRFSGSGSGTDFTLTIRSLEPEDFAVYFCQQRSKWFTFGGGTTVEMK
modifications: peptides N-terminally acetylated and C-terminally amidated
B16: CL-512374 (antibody, V domains shown)
VH: QVQLVESGGGVVQPGRSLRLSCAASGFTFSSYGMHWVRQAPGKGLEWVAVIWYDGSNKYYADSVKGRFTISRDNSKNTLYLQMNSLRAEDTAVYYCARDGGGTTRSFDLWGRGTLVTVSS
VL: QSVLTQPPSVSGAPGQRVTISCTGSSSNIGAGYDVHWYQQLPGTAPKLLIYGNSNRPSGVPDRFSGSKSGTSASLAITGLQAEDEADYYCQSYDSSLSGSMFGGGTKLTVL
modifications: peptides N-terminally acetylated and C-terminally amidated
B17: CL-447703 (antibody, V domains shown)
VH: QVQLVESGGGVVQPGRSLRLSCEASGFTFSDHGMHWVRQGPGKGLEWVSIIWYDGSNKYYADSVKGRFTISRDNSKNTLYLEMNRLRAEDTALYYCARVWNHDDYKYSMDVWGQGTTVTVSS
VL: not shown
modifications: peptides N-terminally acetylated and C-terminally amidated
B18: CL-510499 (antibody, V domains shown)
VH: QVQLVESGGGLVQPGRSLTLSCAASGFTFSNYGMHWVRQTPGKGLEWVALIRYDGSYKFYADSVKGRFTISRDNSKNTLYLQMNSLRAEDTAIYFCARDGDYSNSAGDFDYWGQGTLVTVSS
VL: EIVLTQSPGTLSLSPGERATLSCRASQSVSSTNLAWYQQKPGQAPRLLIYGVSSRATGIPDRFSGSGSGTDFTLTINRLEPEDFAVYYCQQHGRSFTFGPGTKVEIK
modifications: peptides N-terminally acetylated and C-terminally amidated
B19: CL-531286 (antibody, V domains shown)
VH: QVQLVESGGGLVQPGRSLRLSCAASGFTFSSSGMHWVRQAPGKGLEWVAVIWYDGSNKFYADSVKGRFTISRDNSKNTLYLQMNSLRAEDTAVYYCARSGYDILTGYFNFFDPWGQGTLVTVSS
VL: EIVLTQSPGTLSLSPGERATLSCRASQSVSSSHLAWYQQKPGQAPRLLIYGASSRATGIPDRFSGSGSGTDFTLTISRLEPEDFAVYYCHQYVSSFTFGPGTKVDFK
modifications: peptides N-terminally acetylated and C-terminally amidated
B20: CL-510514 (antibody, V domains shown)
VH: QVQLVESGGGVVQPGRSLRLSCTTSGFTFSNFGMHWVRQAPGKGLEWVALIWYDGSNKYYADSVKGRFTISRDNSKNTLYLQMNGLRAEDTAVYYCARDGGYYYGSGGAFDIWGQGTMVTVSS
VL: not shown
modifications: peptides N-terminally acetylated and C-terminally amidated
B21: CL-510469 (antibody, V domains shown)
VH: QVQLVESGGGVVQPGRSLRLSCAASGFTFSSYGMHWVRQAPGKGLEWVAVIWYDGSNQFYTDSVKGRFTISRDNSKNTLYLHMNSLRVEDTAIYYCARDGDYSSSAGDFDYWGQGTLVTVSS
VL: not shown
modifications: peptides N-terminally acetylated and C-terminally amidated
B22: CL-510596 (antibody, V domains shown)
VH: QVQLEESGGGVVQPGRSLRLSCTATGFTFSNYGMHWVRQAPGKGLEWVAVIWYDGSNKYYVDSVKGRFTISRDNSKNTLYLQMNSLRAEDTAVYYCARDGGYYGSGSYWWFDSWGQGTLVTVSS
VL: not shown
modifications: peptides N-terminally acetylated and C-terminally amidated
B23: CL-512459 (antibody, V domains shown)
VH: QVQLVESGGGVVQPGRSLRLSCTASGFTFSDYGMHWVRQAPGKGLEWVSIIWYDGSKKYYADSVQGRFTISRDNSKNTLYLQMSSLRAEDTAVYYCARAYGSGSYYTFNYWGQGTLVTVSS
VL: EIVMTQSPATLSVSPGERATLSCRASQSVNSNLAWYQQKPGQAPRLLIYGASTRATGFPARFIGSGSGTDFTLTINSLQSEDFAVYYCQQYNHWWTFGQGTKVEIK
modifications: peptides N-terminally acetylated and C-terminally amidated
B24: CL-444387 (antibody, V domains shown)
VH: QVHLVESGGGVVQPGRSLRLSCVASGFSFSSYGMHWVRQAPGKGLEWVAIIWYDGSYTYYADSVKGRFTISRDNSKNTLYLQMNSLRVEDTAVYYCAKVGLSYNGRTGAFDIWGQGTMVTVSS
VL: not shown
modifications: peptides N-terminally acetylated and C-terminally amidated

Biological target: PfCSP full length (Plasmodium falciparum (isolate NF54), UniProt P19597)
Assay: ELISA AUC

PfCSP full length, sequence (P19597 20-375): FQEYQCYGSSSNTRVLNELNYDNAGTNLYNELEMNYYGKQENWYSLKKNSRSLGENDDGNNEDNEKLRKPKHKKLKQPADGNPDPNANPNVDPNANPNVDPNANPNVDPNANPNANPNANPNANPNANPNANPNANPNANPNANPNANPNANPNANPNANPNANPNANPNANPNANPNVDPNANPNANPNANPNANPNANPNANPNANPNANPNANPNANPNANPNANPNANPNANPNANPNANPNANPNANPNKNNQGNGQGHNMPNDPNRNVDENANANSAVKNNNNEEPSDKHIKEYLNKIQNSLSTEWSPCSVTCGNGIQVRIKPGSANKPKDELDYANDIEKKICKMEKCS

First: B1
Second: B2
The binding score of the first is higher: 2.55 for the first, 2.47 for the second.

Going from B3 to B4, the binding score rises from 2.16 to 2.3.

Going from B5 to B6, the binding score rises from 2.2 to 2.53.

Compared with B7, B8 is lower in binding score: 2.17 for the first, 2.12 for the second.

First: B9
Second: B10
The binding score of the first is higher: 2.2 for the first, 2.17 for the second.

Compared with B11, B12 is lower in binding score: 2.36 for the first, 2 for the second.

Going from B13 to B14, the binding score falls from 2.4 to 2.14.

Compared with B15, B16 is lower in binding score: 2.38 for the first, 1.17 for the second.

First: B17
Second: B18
The binding score of the first is higher: 2.5 for the first, 2.06 for the second.

Going from B19 to B20, the binding score falls from 2.29 to 2.12.

First: B21
Second: B22
The binding score of the first is higher: 2.16 for the first, 1.64 for the second.

First: B23
Second: B24
The binding score of the first is lower: 2.08 for the first, 2.3 for the second.
